The text below walks through data of patent publication US20090232787A1, “CARCINOGEN DETOXIFICATION COMPOSITION AND METHOD” (Gene Research Lab. Co., Ltd., priority 2004, published 2009).

Data set [1] deals with Cytochrome p450 1A1 (CYP1A1). Put plainly: Aryl hydrocarbon hydroxylase (AHH) assay. The conditions noted are these: cells treated with 9 μM BaP. As for the experimental part: • 1.1 Cell lines and culture. Two HCC cell lines-Huh 7 (13) and HA22TNGH (14)—and one human hepatoblastoma cell line-Hep G2 (15)—were used in this study. Cells were cultured in Dulbecco's modified Eagle's medium (DMEM, GIBCO BRL, Grand Island, N.Y.) with 10% heat-inactivated fetal bovine serum (HyClone, Logan, Utah), penicillin (100 IU/ml), streptomycin (100 μg/ml), nonessential amino acids (0.1 mM), fungizone ([…]) and L-glutamine (2 mM) in a humidified incubator with 5% CO2. • 1.2 Construction of pGNMT, pGNMT-antisense and pGNMT-His-short plasmids. To construct plasmid-pGNMT containing the CMV promoter and GNMT cDNA fragment, we used plasmid-pFLAG-CMV-5 (Kodak, Rochester, N.Y.) as a vector and the pBluescript-GNMT-9-1-2 phagemid (8) as the PCR template for generating the insert. A 0.9 kb DNA fragment containing the GNMT cDNA sequence and restriction enzyme sites on both ends was amplified. All PCR conditions were as recommended by the manufacturer (Perkin Elmer, Norwalk, Conn.) with two exceptions: 2 mM of MgCl2 and 150 nM of primer. Twenty amplification cycles were performed using Perkin Elmer's Amplitaq Gold Taq DNA polymerase with DNA Thermal Cycler. […] RP concentration was measured with a BCA protein assay (Pierce, Rockford, Ill.); purity was tested by running samples on a 12.5% SDS-polyacrylamide mini-gel (Bio-Rad Laboratories, Richmond, Calif.). • 1.4 Transfection. […]

For a further data set, the system named is lung tumors. Format: in vivo. The conditions noted are these: GNMT-overexpressing transgenic mice, 375 μg B(a)P/7g body weight everyday IP for 15 days, sacrificed 78 weeks after the challenge. Here is the method: • 1.1 pPEPCKex-flGNMT Plasmid Construction: pPEPCKex-flGNMT plasmid was prepared by using a pPEPCKex vector (concluding with phosphoenolpyruvate carboxykinase promoter (PEPCK, Valera et al., 1994), specific expressed in liver and kidney) and pSK-flGNMT (concluding with full length human GNMT cDNA) plasmid. Both plasmids were digested with Not I and Xho I. Insert was ligated to the vector and transformation into the competent cell (JM109). The clones were selected with ampicillin and screened with PCR to check pPEPCKex-flGNMT plasmid (FIG. 1). • 1.2 Production of Transgenic Mice: pPEPCKex-flGNMT plasmid was amplified and digested with Asc I to linear form (4.3 Kb). The linear form pPEPCKex-flGNMT gene was sent into FVB stain mice 0.5 days embryo by pronuclei microinjection. The embryos were sent into the foster mother (ICR strain mice). After 18-21 days, the mice were bred and screened with PCR to check the transgenic mice. • 1.3 Expression human GNMT in liver and kidney of transgenic mice: To check the PEPCK promoter specific expression organ, we used northern blot (FIG. 2) and western blot (FIG. 3). The human GNMT was specific expression in liver and kidney. […]

In a further data set the test system is CYP1A1 gene. The conditions noted are these: following BaP treatment; preliminary data.

As to “GNMT: Glycine N-methyltransferase (EC2.1.1.20), SEQ ID No: 1, SAM-dependent methyltransferase binding benzo(a)pyrene”, in data set [1], the “reduction in CYP1A1 enzyme activity in GNMT-expressing cells (SCG2-1-1) compared to SCG2-neg cells” value stood at 45%. Further, the “mice that generated lung tumors” value in the data set on lung tumors is 30%. Further, the “reduction of CYP1A1 gene expression in SCG2-1-1 cells compared to Hep G2 cells” value in the data set with CYP1A1 gene is “approximately 20%”.
